The source of these data is PMC12249575.

This test has as its target EcSofic H194A mutant (Sofic from Escherichia coli H397) (Escherichia coli H397). As to the kind of experiment: AUC; sedimentation velocity, 50,000 rpm, 12 °C; samples 0.8 mg/mL in 20 mM Tris-HCl pH 7.5, 100 mM NaCl, 1 mM DTT; SEDFIT.

What is called stoichiometry N is a count of units in the complex or per binding partner.

For “EcSofic H194A mutant (Sofic from Escherichia coli H397) (enzyme)”, the stoichiometry N came to 2.
